{
  "source": "patent US20180057595A1",
  "about": "(CELLDEX THERAPEUTICS, published 2018)",
  "key": {"[1]": {"target": "T1, human MET, cell-surface expressed (human, UniProt P08581 25-1390)", "T1 construct": "whole, on cells; Used for all assays on cells that carry wild-type human MET; the cell line is named under assay or readout; also called c-Met; hMET", "T1 sequence (P08581 25-1390)": "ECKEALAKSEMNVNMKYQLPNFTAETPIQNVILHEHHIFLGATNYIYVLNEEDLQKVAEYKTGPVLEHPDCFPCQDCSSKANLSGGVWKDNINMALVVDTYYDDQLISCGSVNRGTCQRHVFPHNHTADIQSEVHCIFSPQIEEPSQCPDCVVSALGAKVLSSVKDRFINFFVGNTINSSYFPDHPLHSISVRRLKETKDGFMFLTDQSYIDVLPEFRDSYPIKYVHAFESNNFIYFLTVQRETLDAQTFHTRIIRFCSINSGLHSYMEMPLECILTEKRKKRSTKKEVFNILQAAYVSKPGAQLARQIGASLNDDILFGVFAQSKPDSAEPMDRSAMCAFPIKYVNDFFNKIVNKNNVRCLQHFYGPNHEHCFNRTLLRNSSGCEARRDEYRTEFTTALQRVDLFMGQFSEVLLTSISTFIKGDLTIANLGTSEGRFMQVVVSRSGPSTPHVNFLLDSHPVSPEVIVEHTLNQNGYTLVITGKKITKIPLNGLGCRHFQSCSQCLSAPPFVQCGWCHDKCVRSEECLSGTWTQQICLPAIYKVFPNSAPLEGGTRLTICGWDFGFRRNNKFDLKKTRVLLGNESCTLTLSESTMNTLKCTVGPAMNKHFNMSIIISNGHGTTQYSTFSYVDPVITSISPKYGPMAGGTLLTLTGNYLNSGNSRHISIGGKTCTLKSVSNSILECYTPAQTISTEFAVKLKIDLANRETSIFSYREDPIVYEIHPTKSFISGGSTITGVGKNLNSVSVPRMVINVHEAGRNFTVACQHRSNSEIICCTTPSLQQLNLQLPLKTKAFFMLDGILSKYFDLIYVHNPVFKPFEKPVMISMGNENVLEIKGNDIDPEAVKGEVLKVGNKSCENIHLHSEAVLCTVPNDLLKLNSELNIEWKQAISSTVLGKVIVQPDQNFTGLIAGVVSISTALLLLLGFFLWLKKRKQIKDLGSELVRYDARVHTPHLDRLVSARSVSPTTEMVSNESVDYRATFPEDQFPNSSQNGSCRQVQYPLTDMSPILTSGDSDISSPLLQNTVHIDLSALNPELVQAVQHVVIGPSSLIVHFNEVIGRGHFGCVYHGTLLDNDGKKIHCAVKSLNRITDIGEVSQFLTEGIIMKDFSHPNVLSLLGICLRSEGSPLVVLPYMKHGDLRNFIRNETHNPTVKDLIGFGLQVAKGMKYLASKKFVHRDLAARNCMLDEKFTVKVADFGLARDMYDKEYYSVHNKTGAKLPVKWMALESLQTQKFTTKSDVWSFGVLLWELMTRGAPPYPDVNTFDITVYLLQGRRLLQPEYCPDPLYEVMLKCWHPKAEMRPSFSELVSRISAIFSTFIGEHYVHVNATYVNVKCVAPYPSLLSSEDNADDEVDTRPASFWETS", "assay": "FACS competition on A549 cells; competitor Ab237C", "description": "The binding of anti-MET antibodies to cell surface MET was analyzed by competition FACS analysis using A549 NSCLC cells (ATCC cat. no. CCL-185). […] A total of 3×10⁵ A549 NSCLC cells were added per dilution of antibody and incubated on ice for 1 hour. Cells were washed and a 1:100 dilution of PE-labeled goat anti-rat IgG antibody (BioLegend cat. no. 405406) in FACS buffer was added before incubation on ice for 1 hour. […] The geometric mean fluorescence intensity was plotted against antibody concentration. The IC₅₀ of each of the test antibodies was calculated relative to the IC₅₀ of the reference antibody."}, "[2]": {"target": "T2, human MET-ECD with a His tag (MET-ECD-His) (human, UniProt P08581 25-932)", "T2 construct": "The ELISA sections speak of MET-ECD, MET-ECD-His or His-tagged MET extracellular domain; also called hu-MET-ECD; human cMET ECD", "T2 sequence (P08581 other isoform, or with tags, fused parts or gaps)": "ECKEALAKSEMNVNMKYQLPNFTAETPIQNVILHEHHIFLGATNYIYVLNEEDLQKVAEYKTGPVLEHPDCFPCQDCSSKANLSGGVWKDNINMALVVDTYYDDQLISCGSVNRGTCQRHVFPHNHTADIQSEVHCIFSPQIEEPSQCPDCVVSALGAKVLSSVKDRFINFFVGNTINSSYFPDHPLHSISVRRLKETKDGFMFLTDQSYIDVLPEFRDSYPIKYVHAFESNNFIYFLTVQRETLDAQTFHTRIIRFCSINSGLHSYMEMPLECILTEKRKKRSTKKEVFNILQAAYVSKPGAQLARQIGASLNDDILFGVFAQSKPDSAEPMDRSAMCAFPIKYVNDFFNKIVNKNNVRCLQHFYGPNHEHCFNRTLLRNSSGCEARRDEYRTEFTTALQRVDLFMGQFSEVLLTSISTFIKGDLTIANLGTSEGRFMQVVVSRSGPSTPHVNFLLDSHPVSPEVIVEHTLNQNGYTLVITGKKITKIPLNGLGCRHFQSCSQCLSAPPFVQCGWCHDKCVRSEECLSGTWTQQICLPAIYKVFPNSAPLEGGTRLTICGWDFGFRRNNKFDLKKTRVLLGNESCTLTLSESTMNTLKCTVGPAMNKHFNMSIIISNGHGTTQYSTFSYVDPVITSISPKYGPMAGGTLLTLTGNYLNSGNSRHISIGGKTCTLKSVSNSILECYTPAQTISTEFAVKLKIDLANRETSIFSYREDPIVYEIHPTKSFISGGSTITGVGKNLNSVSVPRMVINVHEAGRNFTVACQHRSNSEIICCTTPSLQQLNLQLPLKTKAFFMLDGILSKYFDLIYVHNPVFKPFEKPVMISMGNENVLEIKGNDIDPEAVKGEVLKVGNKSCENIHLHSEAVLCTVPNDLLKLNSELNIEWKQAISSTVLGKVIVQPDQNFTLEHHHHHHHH", "assay": "competition ELISA on immobilised MET-ECD; competitor Ab237C", "protocol": "The binding of anti-MET antibodies to recombinant MET extracellular domain (“MET-ECD”) was analyzed by competition ELISA. […] The reaction was stopped with 3M HCl, absorbance read at 450 nm on a Dynex Technologies MRX TC II plate reader and the binding curves plotted. Binding curves were used to calculate IC₅₀ values for each test antibody normalized to the IC₅₀ of the reference antibody."}},
  "data": [
    {"binder": "Ab241 (antibody, human IgG1, V domains shown, Composite human (humanized) antibody, human IgG1, kappa) VH: EVQLVESGGGLVQPGGSLKLSCAASGFTFSDSYMAWVRQAPGKGLEWVASISSDGGGTYYRDSVKGRFTISRDNAKSSLYLQMDSLRTEDTATYYCTTEGIYTTDYYPYCFNYWGQGVMVTVSS VL: DIQMTQSPSSLSASVGDRVTITCLASADIHSNLAWYQQKPGKAPQLLIYYGNNLNDGVPSRFSGSGSGTDYTLKINSLQSEDVAIYFCQQSYDSPPTFGQGTKLEIKR", "values": [
      {"measurement": "relative IC50 (against Ab237C)", "setting": "[1]", "result": "~1.22 relative to IC50 of Ab237C"},
      {"measurement": "IC50 relative to the IC50 of Ab237C", "setting": "[2]", "result": "~0.97 relative to IC50 of Ab237C"}
    ]}
  ]
}
